Laboratory results as given in patent US20250277030A1, “ANTI-NAPI2B ANTIBODIES AND METHODS OF USE” (Zymeworks BC Inc., priority 2022, published 2025).

Legend:
[1] = molecular target: T1, human NaPi2b (Homo sapiens, UniProt O95436); assay: Flow cytometry binding to HEK293-6e cells transfected with human NaPi2b (Example 5); conditions: transfected HEK293-6e cells
T1 construct: host or cells: HEK293-6e
T1 sequence (O95436 1-690): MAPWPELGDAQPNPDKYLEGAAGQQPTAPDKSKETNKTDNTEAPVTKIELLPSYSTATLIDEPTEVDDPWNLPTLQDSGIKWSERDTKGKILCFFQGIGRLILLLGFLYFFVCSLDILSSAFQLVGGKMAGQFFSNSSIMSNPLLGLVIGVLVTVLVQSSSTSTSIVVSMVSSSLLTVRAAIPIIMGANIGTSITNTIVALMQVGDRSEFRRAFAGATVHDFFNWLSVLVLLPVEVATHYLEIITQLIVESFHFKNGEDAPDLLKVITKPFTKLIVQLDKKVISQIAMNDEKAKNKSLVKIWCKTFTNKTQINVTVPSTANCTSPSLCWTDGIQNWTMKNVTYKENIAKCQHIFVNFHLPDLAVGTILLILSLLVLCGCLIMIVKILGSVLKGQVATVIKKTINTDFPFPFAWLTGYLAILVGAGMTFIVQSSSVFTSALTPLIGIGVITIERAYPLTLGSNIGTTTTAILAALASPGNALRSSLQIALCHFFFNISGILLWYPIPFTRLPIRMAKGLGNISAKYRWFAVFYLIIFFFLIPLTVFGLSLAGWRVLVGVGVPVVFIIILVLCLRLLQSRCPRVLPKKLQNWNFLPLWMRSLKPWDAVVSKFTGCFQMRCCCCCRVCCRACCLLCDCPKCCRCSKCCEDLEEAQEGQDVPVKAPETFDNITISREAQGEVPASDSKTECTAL
Protocol: The binding cross-reactivity of humanized antibody variant v29456 to human, cynomolgus and mouse NaPi2b was assessed by flow cytometry using HEK293-6e transfected cells.
Briefly, HEK293-6e cells were transfected for ˜24 hours to transiently express human NaPi2b, cynomolgus or mouse NaPi2b, at 1 μg of DNA per 1 million cells. Following transfection, 50,000 cells per well were seeded in V-bottom 96-well plates and incubated with 200 nM of primary antibody for 18-24 hours at 4° C. to prevent internalization. Post-incubation, cells were washed and stained with anti-Human IgG Fc AF647 conjugate (Jackson Immuno Research Labs, West Grove, PA, Cat. No. 109-605-098, Lot. No. 124868) at 4° C. for 1 hour. Following staining and washing, fluorescence was detected by flow cytometry on BD LSRFortessa™ Cell Analyzer (BD Biosciences, Franklin Lake, NJ) with 10,000 minimum events collected per well. The AF647/APC-A GeoMean (fluorescence signal geometric mean, proportional to anti-Human AF647 binding) was calculated for the live singlet cell population for each primary antibody using FlowJo™ v8 software (BD Biosciences, Franklin Lake, NJ). The Bmax and Kd of each primary antibody were calculated using GraphPad Prism Version 9 (GraphPad Software, San Diego, CA)

[2] = system: HCC-78 cells; assay: Internalization by flow cytometry in HCC-78 cells; type: cell-based, human; conditions: antibody 10 nM
Protocol: Briefly, antibodies were fluorescently labeled by coupling to a Fab fragment AF488 conjugate targeting anti-Human IgG Fe (Jackson Immuno Research Labs, West Grove, PA; Cat. No. 109-547-008) at a 1:1 molar ratio in PBS pH 7.4 (Thermo Fisher Scientific, Waltham, MA; Cat. No. 10010-023), for 24 hours at 4° C. Cells were seeded at 50,000 cells/well in RPMI 1640, ATCC modification (Thermo Fisher Scientific, Waltham, MA) supplemented with 10% fetal bovine serum (Thermo Fisher Scientific, Waltham, MA) in 48-well plates and incubated overnight under standard culturing conditions (37° C./5% CO2) to allow attachment. […] Following incubation, cells were dissociated, washed, and surface AF488 fluorescence was quenched using an anti-AF488 antibody (Life Technologies, Carlsbad, CA; Cat. No. A-11094) at 100 nM for 30 minutes at 4° C. […] (internalized fluorescence) was detected by flow cytometry on a BD LSRFortessa™ Cell Analyzer (BD Biosciences, Franklin Lake, NJ) with 1,000 minimum events collected per well. The AF488/FITC-A GeoMean (fluorescence signal geometric mean, proportional to anti-Human Fab AF488 labelling) was calculated for the live single cell population using FlowJo™ Version 10.8.1 (BD Biosciences, Franklin Lake, NJ) and plotted using GraphPad Prism Version 9 (GraphPad Software, San Diego, CA).

[3] = molecular target: T2, NaPi2b expressed on IGROV-1 cells (Homo sapiens, UniProt O95436); assay: Cellular binding to IGROV-1 cells by flow cytometry (Example 19); conditions: NB = no binding (apparent Kd >150 nM)
T2 construct: IGROV-1 cells express endogenous NaPi2b at a high level; endogenous in cells; host or cells: IGROV-1
T2 sequence (O95436 1-690): T1 sequence (O95436 1-690)
Protocol: (§1) Briefly, cells were seeded at 50,000 cells/well in conical-bottom 96-well plates and treated with test antibody for 24 hours at 4° C. to prevent internalization. Palivizumab (anti-RSV antibody, v22277) was included as a negative control. […] Following incubation, cells were washed and stained with anti-Human IgG Fc AF647 conjugate (Jackson Immuno Research Labs, West Grove, PA; Cat. No. 109-605-098) at 4° C. for 30 min. Following incubation and washing, fluorescence was detected by flow cytometry on a BD LSRFortessa™ Cell Analyzer (BD Biosciences, Franklin Lake, NJ) with 1,000 minimum events collected per well. The AF647/APC-A GeoMean (fluorescence signal geometric mean, proportional to anti-Human AF647 binding) was calculated for the live cell population using FlowJo™ Version 10.8.1 (BD Biosciences, Franklin Lake, NJ) and plotted for each test antibody using GraphPad Prism Version 9 (GraphPad Software, San Diego, CA).
(§2) The ability of the humanized antibody variants v38591 and v29456 to bind to NaPi2b expressed on cells was assessed on endogenous NaPi2b-expressing tumor cell lines IGROV-1 (ovarian adenocarcinoma) and TOV-21G (ovarian carcinoma) by flow cytometry. IGROV-1 and TOV-21G cells express endogenous NaPi2b at high and moderate levels, respectively, as described in Example 10.
(§3) Cellular binding was performed according to methods described in Example 13.

[4] = molecular target: T3, NaPi2b expressed on TOV-21G cells (Homo sapiens, UniProt O95436); assay: Cellular binding to TOV-21G cells by flow cytometry (Example 19); conditions: NB = no binding (apparent Kd >150 nM)
T3 construct: IGROV-1 and TOV-21G cells express endogenous NaPi2b at high and moderate levels, respectively; endogenous in cells; host or cells: TOV-21G
T3 sequence (O95436 1-690): T1 sequence (O95436 1-690)
Protocol: as §1, §2, §3

## v22277: anti-RSV antibody palivizumab, negative control; has a heterodimeric Fc [reference compound]
[1]
  Binding to human NaPi2b, in words: did not bind
[2]; HCC-78, 5 hrs
  Internalized Fluorescence Fold-Over Palivizumab: 1.0 fold
[2]; HCC-78, 24 hrs
  Internalized Fluorescence Fold-Over Palivizumab: 1.0 fold
[3]
  Kd: > 150 nM
[4]
  Kd: > 150 nM
